Reference: PMC8612281, “Aromatic Dimer Dehydrogenases from Novosphingobium aromaticivorans Reduce Monoaromatic Diketones” (Applied and Environmental Microbiology, 2021)

Tests used:
Assay in all cases: purified protein
purified protein [1] = substrate: COc1cc(C(=O)C(C)=O)ccc1O; format: biochemical, Novosphingobium aromaticivorans; conditions: 0.1 mM NADH, 25 mM Tris-HCl pH 8, 25 mM NaCl, reduction of Cα ketone
purified protein [2] = substrate: COc1cc(C(O)C(C)O)ccc1O; format: biochemical, Novosphingobium aromaticivorans; conditions: 0.1 mM NAD+, 0.1 μM enzyme, 25 mM Tris-HCl pH 8, 25 mM NaCl, oxidation
purified protein [3] = substrate: COc1cc(C(O)C(CO)Oc2ccccc2OC)ccc1O; conditions: 0.1 mM NAD+, 0.1 μM enzyme, 25 mM Tris-HCl pH 8, 25 mM NaCl, oxidation

B1: LigL (Novosphingobium aromaticivorans DSM 12444) (protein)
chain: MGIETFAGRTAFVTGGASGIGLGIVKALARRDAFVVIADMRTDHISRALKALASAGLGESVAAVELDVTDRAAYASMARRMDEEFGGIDVLVNNAGVGVEGPILQATYPDWDFGLGVNLGGVVNGLQAMLPQMIAHGRGGHVVNTASLAATVVMPGHLAIYAAGKAAVLNLTENMRADLAGRGIGSSVLCPGFVRSNIHEAARNRPAHLREGSGFAASEQALSMRETGSEWMDPDAVGEMVADAILADQLYVITHGEFANRMRERAEALLAATPVCEMQF
Question: For B1, which Km (purified protein [1]; 0.01 μM enzyme) is on record?
Answer: 3400 µM

Question: What about the kcat (purified protein [1]; 0.01 μM enzyme) of the same protein?
Answer: 1.44 s⁻¹

Question: And the Km (purified protein [2])?
Answer: 1530 µM

Question: What about the kcat (purified protein [2]) of the same protein?
Answer: 0.03 s⁻¹

Question: And the Km (purified protein [3])?
Answer: 440 µM

Question: And the kcat (purified protein [3])?
Answer: 0.12 s⁻¹

B2: LigD (Novosphingobium aromaticivorans DSM 12444) (protein)
chain: MQSFENEIAFITGGASGAGFGQAQVFGRAGAKIVVADVRAEAVERAVAALKAEGIVAHGLVLDITDRQAYAGAADEVEQVFGAAPTLLFNTAGVNSFGPVEDTSYDDFDWIVGVNLGGVINGMVTFVPRMIASGRPGHIVTTSSLGGLMGSALAAPYSAAKAAVINLMESYRQGLDKHGIGVSVLCPANIKSNIAEASRLRPAQFGKSGYVENEESIASLHSIHQHGMDPVELAEHVKAGIVANQLYIIPYPEAKDGLRQHFDAIVDAVLPLEADPEGARARTEALNAWAADRARVFMEKNAAQKA
Question: Which results are given for B2?
Answer: Km (purified protein [1]; 0.1 μM enzyme): 410 µM; kcat (purified protein [1]; 0.1 μM enzyme): 0.02 s⁻¹; Km (purified protein [3]): 70 µM; kcat (purified protein [3]): 0.2 s⁻¹

B3: LigN (Novosphingobium aromaticivorans DSM 12444) (protein)
chain: MQNLPGKTAFVTGGASGIGLGIAKALLGAGMNVTIADIRQDHLDSAVAELGGGERVLAVKLDVTNRDQFAKAADATEAKFGKIHLLVNNAGVAVVGPTELATFADWDWVMGVNVNGTINGIVTILPRILAHGEGGHIVCTASMSALVPVAGTTIYSAGKAAVTAMMECMRPELEGRGVICSAFCPGAVQSNIADAAKTRPAELADTGYAEADKRRAAGGNFMHLYQTKEQVGERVLEGILNDELYILTHAEFLTGVEERGLATTAAVQTHLPENPEYKETFAALFRNPAITDEIARQNKLKETRKAGVEA
Question: Which results are given for B3?
Answer: Km (purified protein [1]; 0.1 μM enzyme): 310 µM; kcat (purified protein [1]; 0.1 μM enzyme): 0.1 s⁻¹; Km (purified protein [3]): 80 µM; kcat (purified protein [3]): 0.30 s⁻¹
